Data: the supplement of paper PMC7877785
± gives the uncertainty stated by the source.

Experiment: self-splicing fitness, log relative to wild type (ln ratio); higher = more splicing; Tetrahymena group I intron in knt gene, E. coli kanamycin selection, DiMSum; sequences stand for … in CUCUCU…GGAGGGAAAAGUUAUCAGGCAUGCACCUGGUAGCUAGUCUUUAAACCAAUAGAUUGCAUCGGUUUAAAAGGCAAGACCGUCAAAUUGCGGGAAAGGGGUCAACAGCCGUUCAGUACCAAGUCUCAGGGGAAACUUUGAGAUGGCCUUGCAAAGGGUAUGGUAAUAAGCUGACGGACAUGGUCCUAACCACGCAGCCAAGUCCUAAGUCAACAGAUCUUCUGUUGAUAUGGAUGCAGUUCACAGACUAAAUGUCGGUCGGGGAAGAUGUAUUCUUCUCAUAAGAUAUAGUCGGACCUCUCCUUAAUGGGAGCUAGCGGAUGAAGUGAUGCAACACUGGAGCCGCUGGGAACUAAUUUGUAUGCGAAAGUAUAUUGAUUAGUUUUGGAGUACUCGUGGUCG
Outline: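 Library with all eight P1ex-region intron nucleotides randomised, intron inside the knt kanamycin-resistance gene on pET-22b(+), in E. coli BL21(DE3). Cells grew overnight at 37°C or 30°C on LB agar with or without 25 μg/mL kanamycin (plus 100 μg/mL carbenicillin, 50 μM IPTG, 0.2% rhamnose), in six replicate transformations. Pooled colonies were amplicon-sequenced on Illumina HiSeq 2500. DiMSum fitness is the error-weighted combination of wild-type-normalised replicate fold changes, kanamycin versus none.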

Sequence	self-splicing fitness (ln) (30 °C)	self-splicing fitness (ln) (37 °C)
AACAAGCAAUAUUACGGCCC	-0.249 ± 0.12	-0.0486 ± 0.2
CUAAAGCAAUAUUACGAGGC	-3.6 ± 0.16	-1.92 ± 0.16
AGAAAGCAAUAUUACGUUGC	-4 ± 0.13	-3.36 ± 0.15
UUAAAGCAAUAUUACGUAUU	-3.28 ± 0.15	-2.75 ± 0.2
UCACAGCAAUAUUACGUCUC	-3.42 ± 0.25	-1.77 ± 0.2
CUCGAGCAAUAUUACGUGUA	-2.89 ± 0.12	-3.35 ± 0.22
CUCAAGCAAUAUUACGAAUC		-1.91 ± 0.3
UUAGAGCAAUAUUACGUCAG	-1.02 ± 0.15	-0.83 ± 0.17
UUCCAGCAAUAUUACGUGUU	-4.2 ± 0.25	-2.48 ± 0.21
AAGCAGCAAUAUUACGUGGG	-3.54 ± 0.13	-1.36 ± 0.084
CGGGAGCAAUAUUACGCGGG	-4.1 ± 0.37	-2.83 ± 0.3
GCCCAGCAAUAUUACGUGUG	-2.21 ± 0.08	-1.69 ± 0.081
CUAGAGCAAUAUUACGAUCA	-2.35 ± 0.45	
AAAAAGCAAUAUUACGCGGU	-2.38 ± 0.13	-0.538 ± 0.11
ACUCAGCAAUAUUACGACGA	-0.9 ± 0.087	-0.164 ± 0.11
GGGGAGCAAUAUUACGUUCC		-2 ± 0.3
AUGCAGCAAUAUUACGAUUU	-0.306 ± 0.058	-0.153 ± 0.074
CGGCAGCAAUAUUACGGCUG	-3.69 ± 0.47	-2.23 ± 0.27
CCGUAGCAAUAUUACGAUAA	-4.17 ± 0.39	-1.99 ± 0.28
UUCUAGCAAUAUUACGGCAU	-1.81 ± 0.16	-1.58 ± 0.19
CUCAAGCAAUAUUACGCUGG	-3.19 ± 0.15	-2.62 ± 0.23
CAAUAGCAAUAUUACGACGA	-2.18 ± 0.22	-1.24 ± 0.14
UCGUAGCAAUAUUACGUAGA	-0.639 ± 0.14	0.461 ± 0.14
AAGGAGCAAUAUUACGACAA	-2.38 ± 0.2	-2.16 ± 0.33
CGACAGCAAUAUUACGCGCG	-2.61 ± 0.19	-1.8 ± 0.18
UAACAGCAAUAUUACGGCUG	-2.55 ± 0.095	-0.978 ± 0.12

Sequence	self-splicing fitness (ln) (30 °C)	self-splicing fitness (ln) (37 °C)
CCGAAGCAAUAUUACGCCCG	-0.442 ± 0.13	0.42 ± 0.26
CCCAAGCAAUAUUACGUUUG	-4.1 ± 0.21	-2.82 ± 0.21
UUUAAGCAAUAUUACGCCUC		-0.852 ± 0.36
CGGAAGCAAUAUUACGACUC	-0.372 ± 0.081	-1.1 ± 0.08
CUCCAGCAAUAUUACGAUAG	-1.6 ± 0.079	-0.825 ± 0.1
CUUUAGCAAUAUUACGAGAU	-3.83 ± 0.23	-2.57 ± 0.22
ACACAGCAAUAUUACGGACU	-0.884 ± 0.054	0.0735 ± 0.063
CUUGAGCAAUAUUACGUCGU	-3.97 ± 0.18	-2.75 ± 0.2
UGUCAGCAAUAUUACGUCAA	-0.787 ± 0.077	-0.0175 ± 0.076
AUCCAGCAAUAUUACGCCCU	-0.182 ± 0.15	-0.00746 ± 0.21
UGUGAGCAAUAUUACGCUAU		-1.9 ± 0.3
ACUAAGCAAUAUUACGCGCC	0.0442 ± 0.11	-0.687 ± 0.14
CGCUAGCAAUAUUACGUGAG	-3.88 ± 0.33	-1.64 ± 0.14
ACCGAGCAAUAUUACGGUUC	-3.5 ± 0.43	
GUAAAGCAAUAUUACGGCAC	0.217 ± 0.12	0.134 ± 0.15
UUUGAGCAAUAUUACGCGUC	-2.03 ± 0.22	-2.49 ± 0.26
UGCCAGCAAUAUUACGUAGU	-3.91 ± 0.21	-1.87 ± 0.13
GACGAGCAAUAUUACGGAUU		-2.03 ± 0.19
GAAUAGCAAUAUUACGAGAA	-2.39 ± 0.46	-1.6 ± 0.38
AUUUAGCAAUAUUACGGUCU	-0.911 ± 0.1	-0.391 ± 0.15
UUCUAGCAAUAUUACGACGA	-0.439 ± 0.12	0.731 ± 0.14
AUCGAGCAAUAUUACGGCCA	-1.35 ± 0.41	-1.47 ± 0.37
GAAGAGCAAUAUUACGGGCA	-1.96 ± 0.16	-1.23 ± 0.14
AAUUAGCAAUAUUACGAGCG	-1.1 ± 0.096	-0.749 ± 0.099
CAUAAGCAAUAUUACGGUCC	-3.2 ± 0.25	-2.28 ± 0.31
UUUGAGCAAUAUUACGUUCG	-4.2 ± 0.42	-1.18 ± 0.19

Sequence	self-splicing fitness (ln) (30 °C)	self-splicing fitness (ln) (37 °C)
AAUCAGCAAUAUUACGAGAG	-1.82 ± 0.15	-1.13 ± 0.13
GUAUAGCAAUAUUACGCGUG	-2.13 ± 0.18	-0.201 ± 0.14
UAAUAGCAAUAUUACGGCGC	-3.51 ± 0.35	-2.42 ± 0.38
GACUAGCAAUAUUACGACCC	0.42 ± 0.14	0.392 ± 0.18
CGUAAGCAAUAUUACGUUAA	-3.03 ± 0.23	-2.47 ± 0.29
AUAUAGCAAUAUUACGCAAU	-1.49 ± 0.17	-0.77 ± 0.22
UGCCAGCAAUAUUACGGGUU	-2.46 ± 0.13	-2.34 ± 0.12
AAAUAGCAAUAUUACGUAUA	-1.63 ± 0.12	-0.558 ± 0.12
CGAGAGCAAUAUUACGGAUG	-3.42 ± 0.33	-1.83 ± 0.28
GCAGAGCAAUAUUACGUGAG	-1.62 ± 0.08	-1.65 ± 0.1
AUCUAGCAAUAUUACGGUUG	-2.66 ± 0.15	-2.45 ± 0.19
GCAUAGCAAUAUUACGAUGA	-0.554 ± 0.079	0.0691 ± 0.07
AGGCAGCAAUAUUACGUUCA	-0.538 ± 0.08	-0.117 ± 0.13
GGAUAGCAAUAUUACGAUGA	-1.04 ± 0.15	-0.858 ± 0.14
UCCUAGCAAUAUUACGUCAU	-3.25 ± 0.13	-3.37 ± 0.23
GCUUAGCAAUAUUACGUCGU	-0.74 ± 0.097	0.231 ± 0.14
GCUUAGCAAUAUUACGUCAC		-1.53 ± 0.5
AUCUAGCAAUAUUACGUGAA	-2.52 ± 0.12	-0.861 ± 0.12
UAAGAGCAAUAUUACGGCGU	-1.79 ± 0.13	-2.39 ± 0.31
GACAAGCAAUAUUACGACGA	-0.615 ± 0.067	0.296 ± 0.095
GGGGAGCAAUAUUACGCCGU	-2.64 ± 0.33	-0.911 ± 0.34
UCUGAGCAAUAUUACGUAGG	-0.323 ± 0.087	-0.306 ± 0.13
CGAGAGCAAUAUUACGAUUG		-2.09 ± 0.34
GGCUAGCAAUAUUACGCGAA	-1.83 ± 0.085	-1.27 ± 0.08
UGCAAGCAAUAUUACGUACA	-0.594 ± 0.062	0.366 ± 0.092
AGCCAGCAAUAUUACGUACC	-2.95 ± 0.25	-0.263 ± 0.13
